Experimental data from patent US9988424 (DUKE UNIVERSITY, dated 2018).
Where two headings read alike, the source gives them in different places.

Columns and labels:
MN gp120 [1] = target: MN gp120 (HIV-1)
92TH023 gp120 [2] = target: 92TH023 gp120 (HIV-1)
A.Q23 V1V2 tags [3] = target: A.Q23 V1V2 tags (HIV-1); test: ELISA
AE.A244 gD+ gp120 [4] = target: T1, AE.A244 gD+ gp120 (HIV-1); test: ELISA
T1 construct: domain: gp120; also called AE.A244 gp120gD+

B. 681-7 gp140C = test: ELISA, OD405
D.9009SA V1V2 Tags = target: T2, D.9009SA V1V2 Tags; test: ELISA, OD405
T2 Env construct: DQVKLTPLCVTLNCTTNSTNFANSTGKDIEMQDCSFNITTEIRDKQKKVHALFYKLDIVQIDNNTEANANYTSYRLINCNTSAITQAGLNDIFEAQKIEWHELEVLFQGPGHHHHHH

A.Q23 V1V2 tags [5] = target: A.Q23 V1V2 tags (HIV-1); test: ELISA; remark: listed apart in the source
1C.FD6-ZM109 = test: SPR
J08 C.ZM109.V1V2 [6] = target: J08 C.ZM109.V1V2 (HIV-1); test: SPR
B.63521_V1V2 Tags = target: T3, B.63521_V1V2 Tags; test: ELISA, OD405 at 10 ug/ml mAb
T3 Env construct: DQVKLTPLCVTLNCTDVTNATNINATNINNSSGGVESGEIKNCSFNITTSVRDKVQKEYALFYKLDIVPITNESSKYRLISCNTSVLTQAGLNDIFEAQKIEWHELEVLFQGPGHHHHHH

B.HXB/BAL gp140CFI = target: T4, B.HXB/BAL gp140CFI (HIV-1, UniProt P04578 33-680); test: ELISA, OD405 at 10 ug/ml mAb
T4 construct: also called B.HxB/Ba gp140 CFI

B.63521 gp140C = test: ELISA, OD405 at 10 ug/ml mAb
A.9004SS V1V2 Tags = target: T5, A.9004SS V1V2 Tags; test: ELISA, OD405 at 10 ug/ml mAb
T5 Env construct: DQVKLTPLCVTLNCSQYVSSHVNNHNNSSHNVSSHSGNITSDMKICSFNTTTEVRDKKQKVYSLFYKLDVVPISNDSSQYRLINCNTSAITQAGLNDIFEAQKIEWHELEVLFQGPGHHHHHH

B.Case A2 V1/V2 Tags [7] = target: T6, B.Case A2 V1/V2 Tags; test: ELISA, OD405 at 10 ug/ml mAb
T6 Env construct: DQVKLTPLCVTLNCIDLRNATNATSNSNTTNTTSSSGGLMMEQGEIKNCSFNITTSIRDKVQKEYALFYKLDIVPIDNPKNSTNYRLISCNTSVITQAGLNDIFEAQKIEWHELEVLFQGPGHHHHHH

AE.A244 gD+ gp120 [8] = target: T1, AE.A244 gD+ gp120; test: ELISA; remark: listed apart in the source
MN gp120 [9] = target: MN gp120 (HIV-1); remark: listed apart in the source
92TH023 gp120 [10] = target: 92TH023 gp120 (HIV-1); remark: listed apart in the source
[11] = target: T7, AE.A244 V1/V2 Tags N156QN160Q (HIV-1); test: ELISA
T7 chain: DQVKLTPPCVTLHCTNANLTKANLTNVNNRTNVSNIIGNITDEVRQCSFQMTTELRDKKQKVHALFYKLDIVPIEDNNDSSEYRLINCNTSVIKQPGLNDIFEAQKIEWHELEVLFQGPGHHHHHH

B.63521_V1/V2 tags = test: ELISA, OD405 at 10 ug/ml
D.9009SA V1/V2 tags = test: ELISA, OD405 at 10 ug/ml
A.9004SS V1/V2 tags = target: T8, A.9004SS V1/V2 tags; test: ELISA, OD405 at 10 ug/ml
T8 V1V2 tags construct: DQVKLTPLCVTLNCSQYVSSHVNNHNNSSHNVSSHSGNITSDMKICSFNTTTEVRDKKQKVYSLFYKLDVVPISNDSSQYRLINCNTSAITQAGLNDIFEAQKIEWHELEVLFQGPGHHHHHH

B.Case A2 V1/V2 tags [12] = test: ELISA, OD405 at 10 ug/ml
J08 B.HXB2/BALV1V2 = target: T9, J08 B.HXB2/BALV1V2 (HIV-1); test: ELISA
T9 construct: also called J08 B.HXB/BAL V1V2
T9 chain: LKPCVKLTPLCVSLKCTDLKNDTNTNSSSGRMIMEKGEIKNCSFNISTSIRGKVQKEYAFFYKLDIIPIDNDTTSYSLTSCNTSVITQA

J08 C.ZM109.V1V2 [13] = target: J08 C.ZM109.V1V2 (HIV-1); test: ELISA
J08 A.92RW020V1V2 = J08 A.92RW020V1V2 (HIV-1); test: ELISA

B1: PG9 (antibody, V domains shown)
VH: QRLVESGGGVVQPGSSLRLSCAASGFDFSRQGMHWVRQAPGQGLEWVAFIKYDGSEKYHADSVWGRLSISRDNSKDTLYLQMNSLRVEDTATYFCVREAGGPDYRNGYNYYDFYDGYYNYHYMDVWGKGTTVTVSS
VL: QSALTQPASVSGSPGQSITISCNGTSNDVGGYESVSWYQQHPGKAPKVVIYDVSKRPSGVSNRFSGSKSGNTASLTISGLQAEDEGDYYCKSLTSTRRRVFGTGTKLTVL
notes: also called mAb PG9; bnAb PG9
Q: Which results are given for B1?
A: IC50 (MN gp120 [1]): 10 to 100 nM; IC50 (92TH023 gp120 [2]): 100 to 1000 nM; EC50 (A.Q23 V1V2 tags [3]): 14.9 nM; EC50 (AE.A244 gD+ gp120 [4]): 0.7 nM; binding result (B. 681-7 gp140C): no binding (tested: 10 ug/ml); binding result (D.9009SA V1V2 Tags): no binding (tested: 10 ug/ml); EC50 (A.Q23 V1V2 tags [5]): 14.9 nM; Kd (1C.FD6-ZM109): 4820 nM; Kd (J08 C.ZM109.V1V2 [6]): 318 nM; binding result (B.63521_V1V2 Tags): binds; binding result (B.HXB/BAL gp140CFI): binds; binding result (B.63521 gp140C): binds; binding result (A.9004SS V1V2 Tags): binds; binding result (B.Case A2 V1/V2 Tags [7]): binds; EC50 (AE.A244 gD+ gp120 [8]): 0.7 nM; IC50 (MN gp120 [9]): 10 to 100 nM; IC50 (92TH023 gp120 [10]): 100 to 1000 nM; binding result [11]: no binding (tested: 100 ug/ml); binding result (B.63521_V1/V2 tags): binds; binding result (D.9009SA V1/V2 tags): no binding (tested: 10 ug/ml); binding result (A.9004SS V1/V2 tags): binds; binding result (B.Case A2 V1/V2 tags [12]): binds; EC50 (J08 B.HXB2/BALV1V2): 149 nM; EC50 (J08 C.ZM109.V1V2 [13]): 0.23 nM; EC50 (J08 A.92RW020V1V2): 64 nM
